Values of other authors, collected in patent publication US9506909B2, “Homoarginine as a biomarker for the risk of mortality” (Synlab Medizinisches Versorgungszentrum Heidelberg GmbH, priority 2010, dated 2016).

B1: NTproBNP: N-terminal pro peptide of proBNP, 76 amino acids, inactive counterpart of BNP (protein, UniProt P16860 27-102, looked up)
NT-proBNP: HPLGSPGSASDLETSGLQEQRNHLQGKLSELQVEQTSLEPLQESPRPTGVWKSREVATEGIRGHRKMVLYTLRAPR
modifications: NT-proBNP

How the values were obtained:
[1] = storage for 48 hours at room temperature or at 40 Celsius

| Molecule | in-vivo half-life (in vivo) [h] | concentration loss on storage [1] | in-vivo half-life, longer than that of BNP (printed as the difference to the half-life of BNP) [h] |
| --- | --- | --- | --- |
| BNP: active natriuretic hormone, 32 amino acids, cleaved from proBNP | 0.333 | at least 20% | – |
| B1 | – | – | 2 |
